Test results from IntAct's records for PubMed 35512704.

B1: Speckle-type POZ protein (Homo sapiens), O43791 (parent)
chain: MSRVPSPPPPAEMSSGPVAESWCYTQIKVVKFSYMWTINNFSFCREEMGEVIKSSTFSSGANDKLKWCLRVNPKGLDEESKDYLSLYLLLVSCPKSEVRAKFKFSILNAKGEETKAMESQRAYRFVQGKDWGFKKFIRRDFLLDEANGLLPDDKLTLFCEVSVVQDSVNISGQNTMNMVKVPECRLADELGGLWENSRFTDCCLCVAGQEFQAHKAILAARSPVFSAMFEHEMEESKKNRVEINDVEPEVFKEMMCFIYTGKAPNLDKMADDLLAAADKYALERLKVMCEDALCSNLSVENAAEILILADLHSADQLKTQAVDFINYHASDVLETSGWKSMVVSHPHLVAEAYRSLASAQCPFLGPPRKRLKQS
partner: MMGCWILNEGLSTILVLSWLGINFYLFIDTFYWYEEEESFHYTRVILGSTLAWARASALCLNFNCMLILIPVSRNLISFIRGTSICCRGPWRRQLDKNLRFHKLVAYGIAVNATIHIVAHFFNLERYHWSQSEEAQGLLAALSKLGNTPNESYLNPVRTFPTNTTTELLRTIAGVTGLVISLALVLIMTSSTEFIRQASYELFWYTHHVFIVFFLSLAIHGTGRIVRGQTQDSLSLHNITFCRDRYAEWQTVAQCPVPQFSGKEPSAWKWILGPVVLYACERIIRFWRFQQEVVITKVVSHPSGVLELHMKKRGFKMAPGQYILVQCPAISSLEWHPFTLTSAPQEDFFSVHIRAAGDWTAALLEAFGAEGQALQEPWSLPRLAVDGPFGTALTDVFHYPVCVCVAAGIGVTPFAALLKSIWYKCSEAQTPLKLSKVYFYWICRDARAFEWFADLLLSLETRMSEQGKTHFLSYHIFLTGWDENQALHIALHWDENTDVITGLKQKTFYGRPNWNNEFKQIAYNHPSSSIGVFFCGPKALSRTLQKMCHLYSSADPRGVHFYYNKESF
B2: Speckle-type POZ protein (Homo sapiens), O43791 (parent)
chain: B1 chain
partner: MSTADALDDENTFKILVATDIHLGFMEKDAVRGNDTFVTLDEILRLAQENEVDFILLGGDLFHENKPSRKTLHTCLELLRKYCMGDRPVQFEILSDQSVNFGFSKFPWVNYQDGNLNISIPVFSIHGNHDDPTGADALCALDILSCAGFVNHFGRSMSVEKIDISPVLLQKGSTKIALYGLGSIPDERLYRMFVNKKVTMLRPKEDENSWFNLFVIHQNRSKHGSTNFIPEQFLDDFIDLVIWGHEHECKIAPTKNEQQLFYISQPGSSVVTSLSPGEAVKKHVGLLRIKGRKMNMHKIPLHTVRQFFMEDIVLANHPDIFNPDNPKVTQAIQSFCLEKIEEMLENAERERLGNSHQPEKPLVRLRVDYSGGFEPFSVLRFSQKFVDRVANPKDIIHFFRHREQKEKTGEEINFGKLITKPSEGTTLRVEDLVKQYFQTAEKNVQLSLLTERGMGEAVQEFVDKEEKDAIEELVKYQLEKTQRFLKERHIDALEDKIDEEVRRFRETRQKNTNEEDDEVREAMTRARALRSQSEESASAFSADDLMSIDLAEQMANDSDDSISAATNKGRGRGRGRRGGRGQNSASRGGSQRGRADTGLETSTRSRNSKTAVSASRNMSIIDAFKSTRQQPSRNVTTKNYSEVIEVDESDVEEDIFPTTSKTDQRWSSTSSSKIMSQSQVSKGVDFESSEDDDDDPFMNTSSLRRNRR
B3: Speckle-type POZ protein (Homo sapiens), O43791 (parent)
chain: B1 chain
partner: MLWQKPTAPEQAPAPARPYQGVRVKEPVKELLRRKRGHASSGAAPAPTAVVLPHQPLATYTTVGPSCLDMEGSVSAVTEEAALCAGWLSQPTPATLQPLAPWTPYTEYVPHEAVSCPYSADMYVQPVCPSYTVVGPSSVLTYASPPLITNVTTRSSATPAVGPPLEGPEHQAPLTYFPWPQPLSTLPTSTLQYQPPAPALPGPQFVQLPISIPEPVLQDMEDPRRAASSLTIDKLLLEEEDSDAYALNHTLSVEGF
B4: Speckle-type POZ protein (Homo sapiens), O43791 (parent)
chain: B1 chain
partner: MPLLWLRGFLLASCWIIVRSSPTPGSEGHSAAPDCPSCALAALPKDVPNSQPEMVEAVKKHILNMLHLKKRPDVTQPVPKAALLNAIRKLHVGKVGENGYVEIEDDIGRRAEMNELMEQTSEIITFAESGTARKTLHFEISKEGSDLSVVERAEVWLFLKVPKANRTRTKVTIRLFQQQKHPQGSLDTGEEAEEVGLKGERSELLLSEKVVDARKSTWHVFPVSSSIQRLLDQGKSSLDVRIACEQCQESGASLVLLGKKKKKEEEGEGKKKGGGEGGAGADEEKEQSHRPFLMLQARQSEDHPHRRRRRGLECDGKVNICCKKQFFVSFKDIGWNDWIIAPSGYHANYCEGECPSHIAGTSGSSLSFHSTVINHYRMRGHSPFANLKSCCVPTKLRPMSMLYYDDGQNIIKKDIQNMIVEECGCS
B5: Speckle-type POZ protein (Homo sapiens), O43791 (parent)
chain: B1 chain
partner: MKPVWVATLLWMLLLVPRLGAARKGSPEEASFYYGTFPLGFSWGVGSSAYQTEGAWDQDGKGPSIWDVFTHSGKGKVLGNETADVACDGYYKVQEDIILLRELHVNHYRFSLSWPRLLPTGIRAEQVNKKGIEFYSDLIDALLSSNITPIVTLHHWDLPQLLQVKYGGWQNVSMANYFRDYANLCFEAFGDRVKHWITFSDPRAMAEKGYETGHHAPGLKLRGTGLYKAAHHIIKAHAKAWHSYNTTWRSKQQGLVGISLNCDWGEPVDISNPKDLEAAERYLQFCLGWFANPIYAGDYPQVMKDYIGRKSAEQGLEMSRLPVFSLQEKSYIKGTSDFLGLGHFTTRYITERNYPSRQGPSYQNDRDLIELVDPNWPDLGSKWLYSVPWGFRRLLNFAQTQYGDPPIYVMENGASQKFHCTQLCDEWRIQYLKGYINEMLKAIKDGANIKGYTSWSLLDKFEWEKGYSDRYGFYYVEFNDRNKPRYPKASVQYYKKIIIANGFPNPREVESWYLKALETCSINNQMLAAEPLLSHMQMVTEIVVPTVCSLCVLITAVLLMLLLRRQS
B6: Speckle-type POZ protein (Homo sapiens), O43791 (parent)
chain: B1 chain
partner: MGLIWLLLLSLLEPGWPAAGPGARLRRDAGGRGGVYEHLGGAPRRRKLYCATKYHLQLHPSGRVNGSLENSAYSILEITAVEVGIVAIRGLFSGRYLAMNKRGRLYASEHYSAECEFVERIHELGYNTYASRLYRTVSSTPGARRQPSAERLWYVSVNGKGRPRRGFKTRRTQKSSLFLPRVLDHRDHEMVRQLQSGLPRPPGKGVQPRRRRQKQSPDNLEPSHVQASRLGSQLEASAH

Variants of: B1
Conditions: with nox3_human NOX3, Q9HBY0

Variant | effect of a mutation on the interaction
F133L | with no effect

Variants of: B1
Conditions: with nox3_human NOX3, Q9HBY0
Remark: another data set of the same source

Variant | effect of a mutation on the interaction
F133V | with no effect

Variants of: B1
Conditions: with nox3_human NOX3, Q9HBY0
Remark: another data set of the same source

Variant | effect of a mutation on the interaction
F102C | with no effect

Variants of: B1
Conditions: with nox3_human NOX3, Q9HBY0
Remark: another data set of the same source

Variant | effect of a mutation on the interaction
Y87C | with no effect

Variants of: B2
Conditions: with mre11_human MRE11, P49959

Variant | effect of a mutation on the interaction
F102C | with no effect

Variants of: B2
Conditions: with mre11_human MRE11, P49959
Remark: another data set of the same source

Variant | effect of a mutation on the interaction
F133L | with no effect

Variants of: B2
Conditions: with mre11_human MRE11, P49959
Remark: another data set of the same source

Variant | effect of a mutation on the interaction
F133V | with no effect

Variants of: B2
Conditions: with mre11_human MRE11, P49959
Remark: another data set of the same source

Variant | effect of a mutation on the interaction
Y87C | with no effect

Variants of: B3
Conditions: with obf1_human POU2AF1, Q16633

Variant | effect of a mutation on the interaction
F102C | with no effect

Variants of: B3
Conditions: with obf1_human POU2AF1, Q16633
Remark: another data set of the same source

Variant | effect of a mutation on the interaction
Y87C | with no effect

Variants of: B3
Conditions: with obf1_human POU2AF1, Q16633
Remark: another data set of the same source

Variant | effect of a mutation on the interaction
F133L | with no effect

Variants of: B3
Conditions: with obf1_human POU2AF1, Q16633
Remark: another data set of the same source

Variant | effect of a mutation on the interaction
F133V | with no effect

Variants of: B4
Conditions: with inhba_human INHBA

Variant | effect of a mutation on the interaction
F133V | with no effect

Variants of: B4
Conditions: with inhba_human INHBA
Remark: another data set of the same source

Variant | effect of a mutation on the interaction
F133L | with no effect

Variants of: B4
Conditions: with inhba_human INHBA
Remark: another data set of the same source

Variant | effect of a mutation on the interaction
F102C | with no effect

Variants of: B4
Conditions: with inhba_human INHBA
Remark: another data set of the same source

Variant | effect of a mutation on the interaction
Y87C | with no effect

Variants of: B5
Conditions: with lctl_human LCTL

Variant | effect of a mutation on the interaction
F102C | with no effect

Variants of: B5
Conditions: with lctl_human LCTL
Remark: another data set of the same source

Variant | effect of a mutation on the interaction
F133L | with no effect

Variants of: B5
Conditions: with lctl_human LCTL
Remark: another data set of the same source

Variant | effect of a mutation on the interaction
F133V | with no effect

Variants of: B5
Conditions: with lctl_human LCTL
Remark: another data set of the same source

Variant | effect of a mutation on the interaction
Y87C | with no effect

Variants of: B6
Conditions: with fgf3_human FGF3, P11487

Variant | effect of a mutation on the interaction
F102C | with no effect

Variants of: B6
Conditions: with fgf3_human FGF3, P11487
Remark: another data set of the same source

Variant | effect of a mutation on the interaction
Y87C | with no effect

Variants of: B6
Conditions: with fgf3_human FGF3, P11487
Remark: another data set of the same source

Variant | effect of a mutation on the interaction
F133V | with no effect

Variants of: B6
Conditions: with fgf3_human FGF3, P11487
Remark: another data set of the same source

Variant | effect of a mutation on the interaction
F133L | with no effect
